Results published in PMC2603305 (Biochemistry, 2008).
Substitutions are numbered along the chain they refer to. Where two headings read alike, the source gives them in different places.

Experiments:
[1] = system: O=C1C(=O)c2ccccc2-c2ccccc21; assay: steady-state NADPH oxidation kinetics; type: biochemical, Rattus norvegicus
[2] = molecular target: T1, Kvβ2 (β-subunit of the voltage-gated potassium channel) (Rattus norvegicus, UniProt P62483); assay: NADPH oxidation, specific activity at […]; type: biochemical
T1 sequence (P62483 39-367): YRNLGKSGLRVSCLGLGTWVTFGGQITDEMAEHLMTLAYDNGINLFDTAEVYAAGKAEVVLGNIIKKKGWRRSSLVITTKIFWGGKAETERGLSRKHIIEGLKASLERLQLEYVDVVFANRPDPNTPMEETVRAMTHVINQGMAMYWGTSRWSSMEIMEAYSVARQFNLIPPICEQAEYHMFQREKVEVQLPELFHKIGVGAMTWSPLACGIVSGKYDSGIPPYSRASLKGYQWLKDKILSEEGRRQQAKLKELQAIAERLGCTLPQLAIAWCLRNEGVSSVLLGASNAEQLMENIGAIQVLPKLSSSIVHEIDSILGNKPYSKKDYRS

[3] = molecular target: T2, Kvβ2:Y90F (Rattus norvegicus, UniProt P62483, Y90F); assay: intrinsic fluorescence titration; type: binding
T2 sequence (P62483 39-367 Y90F): T1 sequence (P62483 39-367) with Y52F

[4] = molecular target: T1, Kvβ2 (β-subunit of the voltage-gated potassium channel); assay: intrinsic fluorescence titration; type: binding
[5] = molecular target: T1, Kvβ2 (β-subunit of the voltage-gated potassium channel); assay: NADPH oxidation, specific activity at […]; type: biochemical; remark: listed apart in the source
[6] = substrate: CC(=O)c1ccc([N+](=O)[O-])cc1; assay: steady-state NADPH oxidation kinetics; type: biochemical, Rattus norvegicus; conditions: NADPH active site, Tyr-90 acid-base catalyst
[7] = substrate: CC(=O)C=O; assay: steady-state NADPH oxidation kinetics; type: biochemical, Rattus norvegicus; conditions: NADPH
[8] = substrate: O=Cc1ccc([N+](=O)[O-])cc1; assay: purified protein; conditions: NADPH active site, Tyr-90 acid-base catalyst; binds after NADPH

“Kvβ2 (β-subunit of the voltage-gated potassium channel) (Rattus norvegicus)” was tested. Which Km [1] did it give?
Its Km is 240 ± 140 µM.

CCCCC[C@H](O)/C=C/[C@H]1C(=O)C=C[C@@H]1C/C=C\CCCC(=O)O [PGJ2] was tested. Which “Specific activity” value [2] did it give?
Its value is 0.086 ± 0.019 min⁻¹.

Which results are given for NC(=O)C1=CN([C@@H]2O[C@H](COP(=O)(O)OP(=O)(O)OC[C@H]3O[C@@H](n4cnc5c(N)ncnc54)[C@H](OP(=O)(O)O)[C@@H]3O)[C@@H](O)[C@H]2O)C=CC1 [NADPH]?
Kd [3]: 130 ± 11 nM; Kd [4]: 200 ± 5 nM

With CCCCC/C=C\CC(=O)/C=C/C=C\C/C=C\CCCC(=O)O [12-oxoETE] as the molecule, how does the “Specific activity” value [5] read?
Its value is 0.044 ± 0.007 min⁻¹.

B1: Kvβ2 (β-subunit of the voltage-gated potassium channel) (Rattus norvegicus) (protein)
chain: T1 sequence (P62483 39-367)
How did the Km [6] turn out when B1 was run?
The Km was 209 ± 49 µM.

What about the kcat [6] of the same molecule?
The kcat was 0.00153 ± 0.0001 s⁻¹.

And the kcat/Km [6]?
The kcat/Km was 7.67 ± 1.5 M⁻¹ s⁻¹.

And the Km [7]?
The Km was 12000 ± 1000 µM.

And the Km [8]?
Its Km is 283 ± 31 µM.

And the kcat [8]?
Its kcat is 0.00267 s⁻¹.

And the kcat/Km [8]?
Its kcat/Km is 9.83 M⁻¹ s⁻¹.
